Data as given in the RNAGym collection of RNA variant scans (doi:10.1073/pnas.2313332121).
Fewer inactive variants are shown than the library holds.

B1: TPR 5TU (parent)
chain: GGAUCUUCUCGAUCUAACAAAAAAGACAAAUCUGCCACAAAGCUUGAGAGCAUCUUCGGAUGCAGAGGCGGCAGCCUUCGGUGGCGCGAUAGCGCCAACGUUCUCAACUAUGACACGCAAAACGCGUGCUCCGUUGAAUGGAGUUUAUCAUG

Variants of: B1
Test: polymerase ribozyme fitness, log enrichment relative to wild type (log ratio); higher = more active; in vitro selection for triplet polymerase activity
Summary of the method: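 Mutant libraries were PCR-built and transcribed for each subunit of a heterodimeric triplet polymerase ribozyme and selected for one round in triplicate at −7 °C, frozen, before gel excision of extended constructs and streptavidin-bead capture. Input and output libraries were Illumina-sequenced, keeping genotypes with ≥10 input reads and ≥1 read per output. Fitness is a logarithmic ratio of genotype to wild-type enrichment, in base 2, using inverse-variance-weighted replicate averages.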

| Variant | polymerase ribozyme fitness (log ratio) |
| --- | --- |
| U15A G48C G83U | -2.41 |
| U15A A24G G25U C32A U56A G59C U82G C103G | ≤ -4.2 |
| U15C G46A G59A C93A | -3.01 |
| U15C C36A A60U C85G C116U | ≤ -4.2 |
| C14U G34U G68A C85U U144A C149A | ≤ -4.2 |
| U15C A47C C54U A89U C95G | -2.01 |
| U15C A21C U61A G62C C95A U104A A138U | ≤ -4.2 |
| U15C A20G A97G G140A | -3.64 |
| U15A A20G U44A A121C G136U | ≤ -4.2 |
| C14U C118U | -1.65 |
| C14U G94C | -2.9 |
| C14U G94A | -1.85 |
| U15C A37U C118U | -0.404 |
| U15G A17C A40C | 0.895 |
| U15C A22G G42A G84A G133U | ≤ -4.2 |
| U15A A20C G59A A60U C93G C105U G133U | ≤ -4.2 |
| U15G | -0.334 |
| U15A | -0.182 |
| U15C | 0.917 |
| U15C C36G | -3.28 |
| U15A A49U A73G U82G A107U | ≤ -4.2 |

| Variant | polymerase ribozyme fitness (log ratio) |
| --- | --- |
| U15A C85A | -1.53 |
| U15A C57A C76U G84C | -1.52 |
| U15C A16C C85U C118A | -2.79 |
| C14U G92A C103G | ≤ -4.2 |
| U15A A19C A52G G83A C103G | -3.83 |
| U15C G80C C93G C116G | -4.05 |
| U15C C57G U82G G94A | 0.771 |
| U15A A16G G58U C69G C85U A89U C96U C108U | ≤ -4.2 |
| C14U C87U U102C | -4.18 |
| U15C A22C C36A A106G G143A | ≤ -4.2 |
| U15G A16U A41C A52C G81C G83U A106U U127A | ≤ -4.2 |
| U15A A40C | 0.538 |
| U15A A17C A23U U55A G84A G92A G94A U102G C116G | ≤ -4.2 |
| C14U G74A G94A A122G | ≤ -4.2 |
| U15C A20U A41U C57G A98G | -1.74 |
| U15C C54A G59A G84U A106G U146G | -2.98 |
| U15C C18U C85G C118U G136U | -3.19 |
| U15C A22G A47C U55A G88C U139C | ≤ -4.2 |
| C14U G50C U56G C69U C118U | ≤ -4.2 |
| U15C A64C G71A G100A C118U | ≤ -4.2 |
| U15C G84U | -0.83 |

| Variant | polymerase ribozyme fitness (log ratio) |
| --- | --- |
| U15A C54U G92A | -3 |
| U15G A20U C54U C85G G94U U104C | -2.12 |
| C14U U135C | -3.88 |
| C14U G81A | -1.14 |
| U15A A39C C123U A137C U151C | ≤ -4.2 |
| C14U U31A A64C C75A C93G C103U | ≤ -4.2 |
| U15C C38U A49G C103G G141U | ≤ -4.2 |
| U15A C27G U55A C57G G94U C105U G136A G143U | ≤ -4.2 |
| U15G A21U A39G A47G G83A A142G | -3.92 |
| U15C U145C A150G | -0.684 |
| U15C A24G C76U U145A | ≤ -4.2 |
| U15C A40U U53A G84C | -1.96 |
| C14U C76A C87U | -3.49 |
| U15A A21C A73G C95U U135G A138G U139C | ≤ -4.2 |
| U15A A47C G48C G58C C125U G140A | ≤ -4.2 |
| C14U C76A C85U | -2.67 |
| U15C C57U G59A G68U G84C C129A | ≤ -4.2 |
| U15A G25C A29C G48C A64U C93U C95A C149A | ≤ -4.2 |
| U15A C35U U55A C96G A107U U135C | ≤ -4.2 |
| C14U U56A | -1.8 |
| C14U U144G | -0.898 |

| Variant | polymerase ribozyme fitness (log ratio) |
| --- | --- |
| C14U G48A A64C U90C U102G C103G A115G A122G U127A A150C | ≤ -4.2 |
| U15C A22C C85U U127C | -2 |
| U15C A20G A21U A39U C76U C85A C103A C108U | ≤ -4.2 |
| U15A C57U C63A G68A C87U A122U | ≤ -4.2 |
| U15C A17U A60G G62C A91U | ≤ -4.2 |
| U15A G59U C79G C93A U134A | ≤ -4.2 |
| U15C C51A G86U | -1.6 |
| U15A C38U G58A U61G G68A G83A C87G A106C U145C | ≤ -4.2 |
| U15C A40C C93A C95U C116A A121U | -1.18 |
| U15A U145C | 0.0727 |
| U15A A52C A66C G84U | ≤ -4.2 |
| U15A A39U C96U C114A A122G C123U C125A | -4.11 |
| U15A A21G C36G A60C C96A A147C | ≤ -4.2 |
| U15C A122U | 0.45 |
| U15C A19G C69G C76A C79G G84U C95A A110U | ≤ -4.2 |
| C14U C79A G84A A150G | ≤ -4.2 |
| C14U U55A U56A C76A | -2.4 |
| C14U C87U C99U U101G A137C U145G | ≤ -4.2 |
| U15A G25A G42C C79A | ≤ -4.2 |
| U15C A49G C85U U109G | -0.987 |
| U15G A19U A91U | -3.99 |
